{"source": "paper PMC10866564", "about": "(Science Advances, 2024)", "assay_in_all_cases": "SEC-MALS", "key": {"[1]": {"target": "6×His-SYP-3 (C. elegans) (UniProt O62238)"}, "[2]": {"target": "the molecule itself"}, "[3]": {"target": "T1, 6×His-SYP-3 (C. elegans, UniProt O62238 1-224)", "T1 sequence": "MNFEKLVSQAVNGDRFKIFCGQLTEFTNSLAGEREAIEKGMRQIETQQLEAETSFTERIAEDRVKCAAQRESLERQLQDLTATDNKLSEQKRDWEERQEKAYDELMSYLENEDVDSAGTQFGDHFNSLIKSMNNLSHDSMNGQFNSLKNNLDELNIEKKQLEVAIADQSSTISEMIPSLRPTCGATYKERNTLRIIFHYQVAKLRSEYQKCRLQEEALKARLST"}}}
{"molecule": "SYP-1 (recombinant, untagged) (natural protein)", "values": [{"measurement": "stoichiometry N (copies of each protein in the complex)", "setting": "[1]", "value": 4}]}
{"molecule": "SYP-5 (recombinant, untagged) (natural protein)", "values": [{"measurement": "stoichiometry N (copies of each protein in the complex)", "setting": "[1]", "value": 4}]}
{"molecule": "6×His-SKR-1^WT (natural protein) MADQKKVSEAAKEREIKISSSDNEIFLVPRNVIRLSNTINTLLMDLGLDDEEGTNAEPIPVQNVTASILKKVISWCNHHHSDPISTEDSDNREKRTDDIGSWDVEFLKVDQGTLFELILAANYLDIKGLLDVTCKTVANMIKGKSPEEIRRTFNIKNDFTPEEEEQIRKENAWCED", "values": [{"measurement": "stoichiometry N", "setting": "[2]", "value": 2}]}
{"molecule": "SKR-1 (recombinant, untagged) (natural protein) MADQKKVSEAAKEREIKISSSDNEIFLVPRNVIRLSNTINTLLMDLGLDDEEGTNAEPIPVQNVTASILKKVISWCNHHHSDPISTEDSDNREKRTDDIGSWDVEFLKVDQGTLFELILAANYLDIKGLLDVTCKTVANMIKGKSPEEIRRTFNIKNDFTPEEEEQIRKENAWCED", "values": [{"measurement": "stoichiometry N", "setting": "[3]", "value": "4 copies of each protein in the complex"}]}
{"molecule": "6×His-SKR-1^I155A,W173A (natural protein) MADQKKVSEAAKEREIKISSSDNEIFLVPRNVIRLSNTINTLLMDLGLDDEEGTNAEPIPVQNVTASILKKVISWCNHHHSDPISTEDSDNREKRTDDIGSWDVEFLKVDQGTLFELILAANYLDIKGLLDVTCKTVANMIKGKSPEEIRRTFNAKNDFTPEEEEQIRKENAACED", "values": [{"measurement": "stoichiometry N", "setting": "[2]", "value": 2}]}
{"molecule": "SYP-2 (recombinant, untagged) (natural protein) MNSAHRSSLKKRPGPQDDRRVSFASPVSSSQKTAAVTVAAQTKQPAKAKNLRTMHSTPKKSKPAHDVADIISLVSKQSDILDDVSEIEHKMIKQAKMTQDLTMELANSIERIANMALAESKLSDQMEKQSKKLISLEGKTKELVEKANNWSKTLENRVDARSHHSTCLNDVQAAIKIINNAKINNDGFSEDFSAHYDKLLDLVETLEPWADKL", "values": [{"measurement": "stoichiometry N", "setting": "[3]", "value": "4 copies of each protein in the complex"}]}
{"molecule": "SYP-4 (recombinant, untagged) (natural protein) MSFPTLQVRPNEKNPKVLRCHEFLRQSNQLVERNMINTEGRKMLAKLLTKMVSEAKGIYALDERRAELAKSGKLQEKLKSAYQTSLTVMEDRLHIAELSRQVQEKKLTVQQKYYECDDLRKSVQETNTEARRVQEINEQRLVDTTRATEELIVKSASILKNLENSSDVHKLRAMEEEKRILEEVVEGLRDQKKCLADDIRTKKATLKAESKKSFEKTVIECAKHYKLHQSLMPKLDKSKRSLETLKDEEENRRICGSLSLDETMQFDRSFILASMDKTNKPEKAVQQLTSKSSEVSITPQISETAKSSFSKEPIPTQHPMEVGEEPVIEHSAEESVHIEPPNVTEIREVVPQITIQPTRQDSVVQRDAEELDTSAVPSPQPESILDEPEEEEEELSNHENHADQSMDVMEVDQEVPEESPMEVGEQEEIEQPSVFKDILATEQAALSQEQEPEIVEKQADNDVQFVDDQQVGAQLDVEDEEEVMSENGSNKSNNFSFNFFGNSKGTSAGEGGGEGNFDFNFDGIGAGDDGSNNGGSTGDLDFLNYDGEDEGKGSGNTQSDPFGFASNGNAAGGGGDGSFNFNFDGDGEGGATSGAGGNSTSFFNF", "values": [{"measurement": "stoichiometry N", "setting": "[3]", "value": "4 copies of each protein in the complex"}]}
